Test results as given in article PMC4395418, “The Aspartate-Less Receiver (ALR) Domains: Distribution, Structure and Function” (PLoS Pathogens, 2015).

Tests used:
[1] = molecular target: the molecule itself; test: SEC; purified 15N-labelled RitRALR (ALR domain only) wild-type and Ala mutants; oligomeric state
RitR FL Y100A = RitR FL Y100A (Streptococcus pneumoniae R800, UniProt A0ACD7PPZ9 1-229, Y100A); test: EMSA; binding seen at 0.22 uM protein; 20 mM HEPES pH 7.2, 5 mM MgCl2, 1 mM CaCl2, 0.1 mM EDTA, 10 mM DTT, 10% glycerol, 0.5 uM DNA, 800 ng poly(dI-dC) in 20 ul, room temperature 10 min; 4% native TAE PAGE; conditions: protein: recombinant; tags: His6-SUMO removed by ULP1; chain copies: 2; label: 5' HEX on strand 1; blunt
RitR FL D81A = RitR FL D81A (Streptococcus pneumoniae R800, UniProt A0ACD7PPZ9 1-229, D81A); test: as above; conditions: protein: recombinant; tags: His6-SUMO removed by ULP1; chain copies: 2; label: 5' HEX on strand 1; blunt
RitR FL L86A/V93A = RitR FL L86A/V93A (Streptococcus pneumoniae R800, UniProt A0ACD7PPZ9 1-229, L86A;V93A); test: EMSA; 20 mM HEPES pH 7.2, 5 mM MgCl2, 1 mM CaCl2, 0.1 mM EDTA, 10 mM DTT, 10% glycerol, 0.5 uM DNA, 800 ng poly(dI-dC) in 20 ul, room temperature 10 min; 4% native TAE PAGE; conditions: protein: recombinant; tags: His6-SUMO removed by ULP1; chain copies: 2; label: 5' HEX on strand 1; blunt
RitR FL L86A = RitR FL L86A (Streptococcus pneumoniae R800, UniProt A0ACD7PPZ9 1-229, L86A); test: as above; conditions: protein: recombinant; tags: His6-SUMO removed by ULP1; chain copies: 2; label: 5' HEX on strand 1; blunt
RitR FL L90A = RitR FL L90A (Streptococcus pneumoniae R800, UniProt A0ACD7PPZ9 1-229, L90A); test: as above; conditions: protein: recombinant; tags: His6-SUMO removed by ULP1; chain copies: 2; label: 5' HEX on strand 1; blunt
RitR FL F96G = RitR FL F96G (Streptococcus pneumoniae R800, UniProt A0ACD7PPZ9 1-229, F96G); test: as above; conditions: protein: recombinant; tags: His6-SUMO removed by ULP1; chain copies: 2; label: 5' HEX on strand 1; blunt
RitR FL wild-type = RitR FL wild-type (Streptococcus pneumoniae R800, UniProt A0ACD7PPZ9 1-229); test: EMSA; up to 6.6 uM protein; 20 mM HEPES pH 7.2, 5 mM MgCl2, 1 mM CaCl2, 0.1 mM EDTA, 10 mM DTT, 10% glycerol, 0.5 uM DNA, 800 ng poly(dI-dC) in 20 ul, room temperature 10 min; 4% native TAE PAGE; conditions: protein: recombinant; tags: His6-SUMO removed by ULP1; chain copies: 2; label: 5' HEX on strand 1; blunt
[2] = molecular target: the molecule itself; test: SEC; RitRFL wild-type and mutants; Agilent 1220 HPLC, BioBasic SEC-300A column, 50 mM TRIS pH 8.0, 150 mM NaCl, 10 mM DTT; proteins pre-treated with 10 mM DTT; 0.5 ml/min, ambient temperature

B1: RitR ALR (REC) receiver domain, Leu86 to Ala mutant (domain or fragment)
chain: MGKRILLLEKERNLAHFLSLELQKEQYRVDLVEEGQKALSMALQTDYDLILLNVNLGDMMAQDFAEKLSRTKPASVIMILDHWEDAQEELEVVQRFAVSYIYKPVLIENLVARISAIFRGRDFIG
notes: RitR, Streptococcus pneumoniae strain R800, ALR (REC) domain, amino acids Met1-Ile124, Ala substitution of Leu86; extra C-terminal glycine residue; PDB 4LZL is the wild-type parent of the same limits; also called RitRALR Leu86 mutant; source: E. coli BL21 DE3, 15N-labelled in M9 medium, purified (Ni-NTA, ULP1 cleavage, subtractive Ni-NTA); not shown: His6, N-terminal, cleaved; SUMO, N-terminal, …
stoichiometry N [1]: 2

B2: RitR ALR (REC) receiver domain, Leu90 to Ala mutant (domain or fragment)
chain: MGKRILLLEKERNLAHFLSLELQKEQYRVDLVEEGQKALSMALQTDYDLILLNVNLGDMMAQDFAEKLSRTKPASVIMILDHWEDLQEEAEVVQRFAVSYIYKPVLIENLVARISAIFRGRDFIG
notes: RitR, Streptococcus pneumoniae strain R800, ALR (REC) domain, amino acids Met1-Ile124, Leu90 changed to Ala; extra C-terminal glycine residue; PDB 4LZL is the wild-type parent of the same limits; also called RitRALR Leu90>Ala mutant; Leu90 mutant; source: E. coli BL21 DE3, 15N-labelled in M9 medium, purified (Ni-NTA, ULP1 cleavage, subtractive Ni-NTA); not shown: His6, N-terminal, cleaved; SUMO, …
stoichiometry N [1]: 2

B3: BS2 33-mer (dsDNA)
DNA 1: ATTTTATTGACAGATTAGAAAAATAATGTTACA
DNA 2: TGTAACATTATTTTTCTAATCTGTCAATAAAAT
binding result (RitR FL Y100A): binds | binding result (RitR FL D81A): binds | binding result (RitR FL L86A/V93A): binds | binding result (RitR FL L86A): binds | binding result (RitR FL L90A): binds | binding result (RitR FL F96G): no binding | binding result (RitR FL wild-type): no binding

B4: RitR full-length, Leu86 to Ala Gate mutant (natural protein)
chain: MGKRILLLEKERNLAHFLSLELQKEQYRVDLVEEGQKALSMALQTDYDLILLNVNLGDMMAQDFAEKLSRTKPASVIMILDHWEDAQEELEVVQRFAVSYIYKPVLIENLVARISAIFRGRDFIDQHCSLMKVPRTYRNLRIDVEHHTVYRGEEMIALTRREYDLLATLMGSKKVLTREQLLESVWKYESATETNIVDVYIRYLRSKLDVKGQKSYIKTVRGVGYTMQE
notes: RitR, Streptococcus pneumoniae strain R800, full-length, Gate residue Leu86 changed to Ala; also called RitRFL Leu86 mutant; source: E. coli BL21(DE3) or BL21(DE3)-Star, purified (Ni2+ agarose, ULP1 cleavage, subtractive Ni2+ column); not shown: His6, N-terminal, cleaved; SUMO, N-terminal, cleaved
stoichiometry N [2]: 2

B5: RitR full-length, Leu86/Val93 double mutant (natural protein)
chain: MGKRILLLEKERNLAHFLSLELQKEQYRVDLVEEGQKALSMALQTDYDLILLNVNLGDMMAQDFAEKLSRTKPASVIMILDHWEDAQEELEVAQRFAVSYIYKPVLIENLVARISAIFRGRDFIDQHCSLMKVPRTYRNLRIDVEHHTVYRGEEMIALTRREYDLLATLMGSKKVLTREQLLESVWKYESATETNIVDVYIRYLRSKLDVKGQKSYIKTVRGVGYTMQE
notes: RitR, Streptococcus pneumoniae strain R800, full-length, Val93 mutant combined with a Leu86 mutation (Ala); also called RitRFL Leu86/Val93 double mutant; source: E. coli BL21(DE3) or BL21(DE3)-Star, purified (Ni2+ agarose, ULP1 cleavage, subtractive Ni2+ column); not shown: His6, N-terminal, cleaved; SUMO, N-terminal, cleaved
stoichiometry N [2]: 2

B6: RitR full-length, Val93 to Ala Gate mutant (natural protein)
chain: MGKRILLLEKERNLAHFLSLELQKEQYRVDLVEEGQKALSMALQTDYDLILLNVNLGDMMAQDFAEKLSRTKPASVIMILDHWEDLQEELEVAQRFAVSYIYKPVLIENLVARISAIFRGRDFIDQHCSLMKVPRTYRNLRIDVEHHTVYRGEEMIALTRREYDLLATLMGSKKVLTREQLLESVWKYESATETNIVDVYIRYLRSKLDVKGQKSYIKTVRGVGYTMQE
notes: RitR, Streptococcus pneumoniae strain R800, full-length, Ala substitution of Gate residue Val93; also called RitRFL Val93 mutant; source: E. coli BL21(DE3) or BL21(DE3)-Star, purified (Ni2+ agarose, ULP1 cleavage, subtractive Ni2+ column); not shown: His6, N-terminal, cleaved; SUMO, N-terminal, cleaved
stoichiometry N [2]: 2

B7: RitR full-length, Leu90 to Ala Gate mutant (natural protein)
chain: MGKRILLLEKERNLAHFLSLELQKEQYRVDLVEEGQKALSMALQTDYDLILLNVNLGDMMAQDFAEKLSRTKPASVIMILDHWEDLQEEAEVVQRFAVSYIYKPVLIENLVARISAIFRGRDFIDQHCSLMKVPRTYRNLRIDVEHHTVYRGEEMIALTRREYDLLATLMGSKKVLTREQLLESVWKYESATETNIVDVYIRYLRSKLDVKGQKSYIKTVRGVGYTMQE
notes: RitR, Streptococcus pneumoniae strain R800, full-length, Gate residue Leu90 changed to Ala; also called RitRFL Leu90 mutant; source: E. coli BL21(DE3) or BL21(DE3)-Star, purified (Ni2+ agarose, ULP1 cleavage, subtractive Ni2+ column); not shown: His6, N-terminal, cleaved; SUMO, N-terminal, cleaved
stoichiometry N [2]: 2
